Source: publication PMC7532634

Columns and labels:
Test in all cases: EMSA
[1] = system: T1, MsrR:C62S C62S (Corynebacterium glutamicum), ORF:1371e9c5; details: 10 mM Tris-HCl pH 7.4 (Fig 4 legend says pH 8.0 for the H2O2/DTT test), 5 mM MgCl2, 50 mM KCl, 5% glycerol, 0.1% NP40, 1 ug poly(dI:dC), 40 ng DNA in 20 ul …
T1 sequence: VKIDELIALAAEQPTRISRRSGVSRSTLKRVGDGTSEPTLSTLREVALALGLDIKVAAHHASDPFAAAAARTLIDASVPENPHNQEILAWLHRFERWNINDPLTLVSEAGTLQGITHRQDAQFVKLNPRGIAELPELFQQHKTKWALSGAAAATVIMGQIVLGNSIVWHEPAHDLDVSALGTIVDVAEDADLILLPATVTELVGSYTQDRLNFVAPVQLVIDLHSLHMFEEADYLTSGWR

[2] = system: MsrR (Corynebacterium glutamicum); details: no oxidant; apparent KD; 10 mM Tris-HCl pH 7.4 (Fig 4 legend says pH 8.0 for the H2O2/DTT test), 5 mM MgCl2, 50 mM KCl, 5% glycerol, 0.1% NP40, 1 ug poly(dI:dC), 40 ng DNA in 20 ul …
[3] = system: MsrR:C62S (Corynebacterium glutamicum); details: no H2O2; unit inferred, nM from context; apparent KD; 10 mM Tris-HCl pH 7.4 (Fig 4 legend says pH 8.0 for the H2O2/DTT test), 5 mM MgCl2, 50 mM KCl, 5% glycerol, 0.1% NP40, 1 ug poly(dI:dC), 40 ng DNA in 20 ul …

Row | Substance | Kd [1] | binding [1] | Kd [2] | Kd [3]
1 | GTGGACACGGGGTGTCTCCTAAAGATGGGGAGCAAAAACCCTCAAACTGCTGCTAAAAATACAGGATTGGCGCCCGTGACGCTACTGAAAAGGTGGAGGGGCGCGTCGAAAAGCGTTGGCCGGTGCCTGAGCGAAAAACCGTGATGATTAGCATGGTTTGTT (double strand) [PmsrR] | 23.1 nM | binds | – | –
2 | PmsrR | – | – | 17 nM | 23.1 nM
